{"source": "patent US20100159011A1", "about": "“Compositions For Biomedical Applications” (University of Massachusetts Medical School, priority 2007, published 2010)", "molecules": {"B1": {"name": "rmRANKL: recombinant receptor activator of nuclear factor κ ligand, purchased from R&D Systems (protein, UniProt O35235 139-316, looked up)", "Tumor necrosis factor ligand …": "FSGAPAMMEGSWLDVAQRGKPEAQPFAHLTINAASIPSGSHKVTLSSWYHDRGWAKISNMTLSNGKLRVNQDGFYYLYANICFRHHETSGSVPTDYLQLMVYVVKTSIKIPSSHNLMKGGSTKNWSGNSEFHFYSINVGGFFKLRAGEEISIQVSNPSLLDPDQDATYFGAFKVQDID"}}, "tested_on": "murine macrophage RAW264.7 cells", "assay": "Osteoclastic differentiation of RAW264.7 cells (TRAP stain)", "format": "cell-based", "conditions": "for osteoclast differentiation of RAW264.7 (TRAP): no graft carrier", "method": "Grafts (5×5×1 mm, FlexBone 25% HA-25% TCP) were pre-absorbed with varying amounts of growth factors and cytokines to provide an exogenous supply for remodeling. […] The preferred loading dose of RANKL (10 ng/FlexBone graft) was determined by the osteoclastic differentiation of macrophage RAW264.7, induced by the RANKL released from the graft as indicated by positive TRAP stains (purple) of multinucleated cells on Day 6. […] Finally, the preferred loading dose of rhVEGF165 in stimulating the proliferation of human vascular endothelial cells in culture was determined to be 5 ng/graft.\nOsteoclastic differentiation of murine macrophage RAW264.7 cells induced by the rmRANKL released from FlexBone. The bioactivity of the exogenous rmRANKL released from FlexBone is evaluated by its ability to induce osteoclastic differentiation of murine macrophage RAW264.7 cells six days after placing the FlexBone graft pre-loaded with rnRANKL in the RAW264.7 culture. RAW264.7 cells were seeded at 10,000/cm^2 in a 24-well plate in alpha-MEM (0.5 mL/well) supplemented with 10% FBS and 1% Pen-Strep, and allowed to attach overnight. One FlexBone or pHEMA graft freshly loaded with 10-ng rmRANKL was then added to each well (N=3 for each combination) on day one, and the culture was continued for 6 days with media change every two days without additional supplement of rmRANKL. In the positive control well, 10 ng rmRANKL was supplemented directly in the culture media without a graft carrier every two days. In the negative control well, 10 ng rmRANKL was supplemented directly in the culture media without a graft carrier on day one, and the medium was changed every two days without any additional supplement of rmRANKL. […] Grafts were removed from all wells before the cells were stained for tartrate-resistant acid phosphatase (TRAP) activities using the Sigma TRAP kit following the manufacturer's instructions."}
{"molecule": "B1", "values": [{"measurement": "osteoclast differentiation of RAW264.7 (TRAP)", "setting": "continued supplement of 10-ng every other day, day six", "result": "led to the formation of TRAP-positive multinucleated osteoclasts by day six"}, {"measurement": "preferred loading dose", "setting": "determined by osteoclastic differentiation of RAW264.7, TRAP stains on Day 6", "result": 10, "unit": "ng/FlexBone graft"}, {"measurement": "supplement needed every other day to induce differentiation", "setting": "no graft control", "result": 5, "unit": "ng"}, {"measurement": "osteoclast differentiation of RAW264.7 (TRAP)", "setting": "single supplement of 10-ng directly to the culture", "result": "not sufficient in inducing the osteoclast differentiation"}]}
